Measured values: patent publication US20220135638A1 (Takeda / Millennium, published 2022)
Numbered stars: 1 amine (or outer) side, 2 acyl side, 3 side chain; on linkers, the order of the positions; unused ones are H or OH. Square brackets hold non-standard residues; d marks the D form. Primed or numbered codes have the meaning given here. Side chains are listed from the residue outwards. Ends that are not written are not given here. * marks the point of attachment. C20 diacid = O=C(O)CCCCCCCCCCCCCCCCCCC(=O)*; C18 diacid = O=C(O)CCCCCCCCCCCCCCCCC(=O)*; C16 diacid = O=C(O)CCCCCCCCCCCCCCC(=O)*; γGlu = O=C(O)[C@H](CCC(=O)[*:2])N[*:1]; Iva = CC[C@](C)(N)C(=O)O; PEG3′ = not defined here; Aib = CC(C)(N)C(=O)O

T1: full-length human GIPR (GenBank NM_000164) with an N-terminal FLAG tag on HEK-293T cells (human), P48546
T1 chain: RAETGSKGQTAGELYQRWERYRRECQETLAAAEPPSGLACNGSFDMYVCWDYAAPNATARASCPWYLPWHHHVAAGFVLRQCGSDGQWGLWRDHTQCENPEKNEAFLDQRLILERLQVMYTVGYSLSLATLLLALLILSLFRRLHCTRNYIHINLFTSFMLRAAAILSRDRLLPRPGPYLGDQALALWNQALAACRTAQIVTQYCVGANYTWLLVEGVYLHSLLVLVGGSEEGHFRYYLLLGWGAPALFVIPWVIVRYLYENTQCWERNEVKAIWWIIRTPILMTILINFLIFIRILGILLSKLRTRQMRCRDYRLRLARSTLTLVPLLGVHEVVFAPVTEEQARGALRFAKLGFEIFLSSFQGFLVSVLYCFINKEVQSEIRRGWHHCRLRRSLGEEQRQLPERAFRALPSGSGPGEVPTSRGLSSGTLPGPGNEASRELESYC

T2: full-length human GLP-1R (GenBank NM_002062) with an N-terminal FLAG tag on HEK-293T cells (human), P43220
T2 chain: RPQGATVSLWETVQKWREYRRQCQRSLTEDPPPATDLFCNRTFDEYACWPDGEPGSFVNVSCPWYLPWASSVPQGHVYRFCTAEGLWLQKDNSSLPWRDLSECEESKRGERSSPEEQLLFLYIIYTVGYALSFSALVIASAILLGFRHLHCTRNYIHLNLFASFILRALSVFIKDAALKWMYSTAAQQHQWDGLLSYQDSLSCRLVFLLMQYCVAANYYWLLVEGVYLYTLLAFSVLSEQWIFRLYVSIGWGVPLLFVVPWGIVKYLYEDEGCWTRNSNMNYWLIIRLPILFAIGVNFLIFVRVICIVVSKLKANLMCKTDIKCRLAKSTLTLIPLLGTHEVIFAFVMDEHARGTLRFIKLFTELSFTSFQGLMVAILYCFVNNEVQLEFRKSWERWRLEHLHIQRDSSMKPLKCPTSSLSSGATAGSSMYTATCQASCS


Legend:
[1] = target: T1, full-length human GIPR (GenBank …); assay: cell-based or functional assay
[2] = target: T2, full-length human GLP-1R (GenBank …); assay: cell-based or functional assay

| Binder | GIP EC50(pM) [1] | GLP EC50 [2] |
| --- | --- | --- |
| Y[Aib]EGTFISDYSIALDR[Aib]HQ[Aib]NFVNW[Iva]LAQRPSSGAPK([Gly-Gly-Gly-Gly-Gly-γGlu-C18 diacid])PS (ends and bridges not checked) [Compound No. 457] | 0.82 pM | > 1000 nM |
| Y[Aib]EGTFISDYSIALDR[Aib]HQ[Aib]NFVNW[Iva]LAQRPSSGAPPK([Gly-Gly-Gly-Gly-Gly-γGlu-C18 diacid])S (ends and bridges not checked) [Compound No. 460] | 0.44 pM | > 1000 nM |
| Y[Aib]EGTFISDYSIALDR[Aib]HQ[Aib]NFVNW[Iva]LAQRPSK([Gly-Gly-Gly-Gly-Gly-γGlu-C16 diacid])GAPPPS (ends and bridges not checked) [Compound No. 444] | 0.39 pM | > 1000 nM |
| Y[Aib]EGTFISDYSIALDR[Aib]HQ[Aib]NFVNW[Iva]LAQRPSSK([Gly-Gly-Gly-Gly-Gly-γGlu-C16 diacid])APPPS (ends and bridges not checked) [Compound No. 447] | 0.31 pM | > 1000 nM |
| Y[Aib]EGTFISDYSIALDR[Aib]HQ[Aib]NFVNW[Iva]LAQRPSSGAK([Gly-Gly-Gly-Gly-Gly-γGlu-C16 diacid])PPS (ends and bridges not checked) [Compound No. 453] | 0.6 pM | > 1000 nM |
| Y[Aib]EGTFISDYSIALDR[Aib]HQ[Aib]NFVNW[Iva]LAQRPSSGK([Gly-Gly-Gly-Gly-Gly-γGlu-C18 diacid])PPPS (ends and bridges not checked) [Compound No. 451] | 0.74 pM | > 1000 nM |
| Y[Aib]EGTFISDYSIALDR[Aib]HQ[Aib]NFVNW[Iva]LAQRPSSGAPK([Gly-Gly-Gly-Gly-Gly-γGlu-C16 diacid])PS (ends and bridges not checked) [Compound No. 456] | 0.57 pM | > 1000 nM |
| Y[Aib]EGTFISDYSIALDR[Aib]HQ[Aib]NFVNW[Iva]LAQRPSK([Gly-Gly-Gly-Gly-Gly-γGlu-C20 diacid])GAPPPS (ends and bridges not checked) [Compound No. 446] | 0.85 pM | 891 nM |
| Y[Aib]EGTFISDYSIALDR[Aib]HQ[Aib]NFVNW[Iva]LAQRPSSGAK([Gly-Gly-Gly-Gly-Gly-γGlu-C18 diacid])PPS (ends and bridges not checked) [Compound No. 454] | 1.14 pM | > 1000 nM |
| Y[Aib]EGTFISDYSIALDR[Aib]HQ[Aib]NFVNW[Iva]LAQRPSSK([Gly-Gly-Gly-Gly-Gly-γGlu-C18 diacid])APPPS (ends and bridges not checked) [Compound No. 448] | 0.54 pM | > 1000 nM |
| Y[Aib]EGTFISDYSIALDR[Aib]HQ[Aib]NFVNW[Iva]LAQRKSSGAPPPS (not fully specified (residue 31); ends and bridges not checked) [Compound No. 468] | 0.44 pM | > 1000 nM |
| Y[Aib]EGTFISDYSIALDR[Aib]HQ[Aib]NFVNW[Iva]LAQRPK([Gly-Gly-Gly-Gly-Gly-γGlu-C20 diacid])SGAPPPS (ends and bridges not checked) [Compound No. 443] | 0.86 pM | 977 nM |
| Y[Aib]EGTFISDYSIALDR[Aib]HQ[Aib]NFVNW[Iva]LAQRPSK([Gly-Gly-Gly-Gly-Gly-γGlu-C18 diacid])GAPPPS (ends and bridges not checked) [Compound No. 445] | 0.38 pM | > 1000 nM |
| Y[Aib]EGTFISDYSIALDR[Aib]HQ[Aib]NFVNW[Iva]LAQRK([PEG3′-PEG3′-C20 diacid])SSGAPPPSR (ends and bridges not checked) [Compound No 913] | – | 575 nM |
| Y[Aib]EGTFISDYSIALDR[Aib]HQ[Aib]NFVNW[Iva]LAQRPSSGK([Gly-Gly-Gly-Gly-Gly-γGlu-C16 diacid])PPPS (ends and bridges not checked) [Compound No. 450] | 0.4 pM | > 1000 nM |
| Y[Aib]EGTFISDYSIALDR[Aib]HQ[Aib]NFVNW[Iva]LAQRPK([Gly-Gly-Gly-Gly-Gly-γGlu-C16 diacid])SGAPPPS (ends and bridges not checked) [Compound No. 441] | 0.33 pM | > 1000 nM |
| Y[Aib]EGTFISDYSIALDR[Aib]HQ[Aib]NFVNW[Iva]LAQRPK([Gly-Gly-Gly-Gly-Gly-γGlu-C18 diacid])SGAPPPS (ends and bridges not checked) [Compound No. 442] | 1.01 pM | > 1000 nM |
| Y[Aib]EGTFISDYSIALDR[Aib]HQ[Aib]NFVNW[Iva]LAQRPSSGAPPPK([Gly-Gly-Gly-Gly-Gly-γGlu-C20 diacid]) (ends and bridges not checked) [Compound No. 464] | 1.29 pM | 977 nM |
| Y[Aib]EGTFISDYSIALDR[Aib]HQ[Aib]NFVNW[Iva]LAQRPSSGAPPK([Gly-Gly-Gly-Gly-Gly-γGlu-C20 diacid])S (ends and bridges not checked) [Compound No. 461] | 1.3 pM | > 1000 nM |
| Y[Aib]EGTFISDYSIALDR[Aib]HQ[Aib]NFVNW[Iva]LAQRPSSGAPPPK([Gly-Gly-Gly-Gly-Gly-γGlu-C16 diacid]) (ends and bridges not checked) [Compound No. 462] | 0.35 pM | > 1000 nM |
| Y[Aib]EGTFISDYSIALDR[Aib]HQ[Aib]NFVNW[Iva]LAQRPSSGAPPK([Gly-Gly-Gly-Gly-Gly-γGlu-C16 diacid])S (ends and bridges not checked) [Compound No. 459] | 0.41 pM | > 1000 nM |
| Y[Aib]EGTFISDYSIALDR[Aib]HQ[Aib]NFVNW[Iva]LAQRPSSK([Gly-Gly-Gly-Gly-Gly-γGlu-C20 diacid])APPPS (ends and bridges not checked) [Compound No. 449] | 0.65 pM | 912 nM |
| Y[Aib]EGTFISDYSIALDR[Aib]HQ[Aib]NFVNW[Iva]LAQRPSSGAPPPK([Gly-Gly-Gly-Gly-Gly-γGlu-C18 diacid]) (ends and bridges not checked) [Compound No. 463] | 0.52 pM | > 1000 nM |
| Y[Aib]EGTFISDYSIALDR[Aib]HQ[Aib]NFVNW[Iva]LAQRPSSGK([Gly-Gly-Gly-Gly-Gly-γGlu-C20 diacid])PPPS (ends and bridges not checked) [Compound No. 452] | 2.17 pM | > 1000 nM |
| Y[Aib]EGTFISDYSIALDR[Aib]HQ[Aib]NFVNW[Iva]LAQRPSSGAPK([Gly-Gly-Gly-Gly-Gly-γGlu-C20 diacid])PS (ends and bridges not checked) [Compound No. 458] | 1.31 pM | > 1000 nM |
| Y[Aib]EGTFISDYSIALDR[Aib]HQ[Aib]NFVNW[Iva]LAQRPSSGAK([Gly-Gly-Gly-Gly-Gly-γGlu-C20 diacid])PPS (ends and bridges not checked) [Compound No. 455] | 2.24 pM | > 1000 nM |
